{
  "source": "paper PMC10786891",
  "about": "“Massively parallel profiling of RNA-targeting CRISPR-Cas13d”",
  "binders": {"B1": {"name": "target 1 insA 3' of 13,insC 3' of 11 (mixed)", "RNA 1": "CACCCGUGCAAAAAUGCAGGGGUCUAAAACUGAGCGGAUAACCUCUCUAUGG", "RNA 2": "GGGAAUGGAUCCACAUCUACGAAUUCGUACCAUAGAGAGAGUCUAUCCGCUCACCGAGAUCGGAAGAGCACACGU"}, "B2": {"name": "target 1 insC 3' of 20,insC 3' of 1 (mixed)", "RNA 1": "B1 RNA 1", "RNA 2": "GGGAAUGGAUCCACAUCUACGAAUUCGUACCACUAGAGAGGUUAUCCGCUCACCCGAGAUCGGAAGAGCACACGU"}, "B3": {"name": "target 1 insA 3' of 12 (mixed)", "RNA 1": "B1 RNA 1", "RNA 2": "GGGAAUGGAUCCACAUCUACGAAUUCGUACCAUAGAGAGGAUUAUCCGCUCACCGAGAUCGGAAGAGCACACGU"}, "B4": {"name": "target 1 insU 3' of 7,insU 3' of 7 (mixed)", "RNA 1": "B1 RNA 1", "RNA 2": "B1 RNA 2 with A40G, G41U, C43A, A45C, C47U"}, "B5": {"name": "target 1 G12A,U19G (mixed)", "RNA 1": "B1 RNA 1", "RNA 2": "GGGAAUGGAUCCACAUCUACGAAUUCGUACCAGAGAGAGAUUAUCCGCUCACCGAGAUCGGAAGAGCACACGU"}, "B6": {"name": "target 1 C7A,G15C (mixed)", "RNA 1": "B1 RNA 1", "RNA 2": "B5 RNA 2 with G33U, G37C, A40G, C45A"}, "B7": {"name": "target 1 insG 3' of 18,insC 3' of 12 (mixed)", "RNA 1": "B1 RNA 1", "RNA 2": "B1 RNA 2 with A36G, G37A, A38G, G39A, A40G, U42C, C43U"}, "B8": {"name": "target 1 C6U,G17U (mixed)", "RNA 1": "B1 RNA 1", "RNA 2": "B5 RNA 2 with G33U, G35U, A40G, C46U"}, "B9": {"name": "target 1 del4,del14 (mixed)", "RNA 1": "B1 RNA 1", "RNA 2": "GGGAAUGGAUCCACAUCUACGAAUUCGUACCAUAGAGGGUUAUCCGUCACCGAGAUCGGAAGAGCACACGU"}, "B10": {"name": "target 1 insA 3' of 5,insU 3' of 4 (mixed)", "RNA 1": "B1 RNA 1", "RNA 2": "B1 RNA 2 with A40G, G41U, C43A, A45C, U46C, C47G, C48A, G49C, C50U"}, "B11": {"name": "target 1 insU 3' of 20,insC 3' of 13 (mixed)", "RNA 1": "B1 RNA 1", "RNA 2": "GGGAAUGGAUCCACAUCUACGAAUUCGUACCAUUAGAGAGCGUUAUCCGCUCACCGAGAUCGGAAGAGCACACGU"}, "B12": {"name": "target 1 insU 3' of 21,insG 3' of 6 (mixed)", "RNA 1": "B1 RNA 1", "RNA 2": "B2 RNA 2 with A32U, C33A, C49G, U50C, C51U, A52C, C53A"}, "B13": {"name": "target 1 insA 3' of 21,insG 3' of 19 (mixed)", "RNA 1": "B1 RNA 1", "RNA 2": "B1 RNA 2 with U33A, A34U, U42G, C43U"}, "B14": {"name": "target 1 insG 3' of 6,insA 3' of 5 (mixed)", "RNA 1": "B1 RNA 1", "RNA 2": "B1 RNA 2 with A40G, G41U, C43A, A45C, U46C, C47G, C48G, G49A"}, "B15": {"name": "target 1 insA 3' of 17,insC 3' of 12 (mixed)", "RNA 1": "B1 RNA 1", "RNA 2": "B11 RNA 2 with U34A, A35G, G36A, C41G, G42C"}, "B16": {"name": "target 1 G13A,G17U (mixed)", "RNA 1": "B1 RNA 1", "RNA 2": "B5 RNA 2 with G33U, G35U, G39A, A40G"}, "B17": {"name": "target 1 insA 3' of 15,insU 3' of 7 (mixed)", "RNA 1": "B1 RNA 1", "RNA 2": "B1 RNA 2 with G39A, A40G, C43U, U44A, A45U, U46C, C47U"}, "B18": {"name": "target 1 G5U,C7G (mixed)", "RNA 1": "B1 RNA 1", "RNA 2": "B5 RNA 2 with G33U, A40G, C45G, G47U"}, "B19": {"name": "target 1 del9,del15 (mixed)", "RNA 1": "B1 RNA 1", "RNA 2": "B9 RNA 2 with G37A, A42U, U43C, C45G, G46C"}, "B20": {"name": "target 1 insC 3' of 15,insG 3' of 6 (mixed)", "RNA 1": "B1 RNA 1", "RNA 2": "B1 RNA 2 with A38C, G39A, A40G, C43U, U44A, A45U, U46C, C48G"}, "B21": {"name": "target 1 insC 3' of 14,insG 3' of 3 (mixed)", "RNA 1": "B1 RNA 1", "RNA 2": "GGGAAUGGAUCCACAUCUACGAAUUCGUACCAUAGAGACGGUUAUCCGCUGCACCGAGAUCGGAAGAGCACACGU"}, "B22": {"name": "target 1 insG 3' of 14,insC 3' of 12 (mixed)", "RNA 1": "B1 RNA 1", "RNA 2": "B1 RNA 2 with A40G, U42C, C43U"}, "B23": {"name": "target 1 insG 3' of 6,insC 3' of 3 (mixed)", "RNA 1": "B1 RNA 1", "RNA 2": "B21 RNA 2 with C39G, G41U, U43A, A44U, U45C, C47G, G51C"}, "B24": {"name": "target 1 insG 3' of 18,insU 3' of 12 (mixed)", "RNA 1": "B1 RNA 1", "RNA 2": "B11 RNA 2 with U34A, A35G, C41G, G42U"}, "B25": {"name": "target 1 insG 3' of 18,insG 3' of 3 (mixed)", "RNA 1": "B1 RNA 1", "RNA 2": "B21 RNA 2 with A36G, G37A, A38G, C39A"}, "B26": {"name": "target 1 insC 3' of 18,insG 3' of 16 (mixed)", "RNA 1": "B1 RNA 1", "RNA 2": "B11 RNA 2 with U34A, A35C, A39G, G40A, C41G"}, "B27": {"name": "target 1 insA 3' of 13,insC 3' of 5 (mixed)", "RNA 1": "B1 RNA 1", "RNA 2": "B21 RNA 2 with C39G, G40A, U50C, G51U"}, "B28": {"name": "target 1 insU 3' of 15,insU 3' of 13 (mixed)", "RNA 1": "B1 RNA 1", "RNA 2": "B1 RNA 2 with A38U, G39A, A40G, G41U, U42G, C43U"}, "B29": {"name": "target 1 C4G,C6G (mixed)", "RNA 1": "B1 RNA 1", "RNA 2": "B5 RNA 2 with G33U, A40G, C46G, C48G"}, "B30": {"name": "target 1 insA 3' of 19,insG 3' of 18 (mixed)", "RNA 1": "B1 RNA 1", "RNA 2": "B1 RNA 2 with G35A, A36G, U42G, C43U"}, "B31": {"name": "target 1 insA 3' of 8,insG 3' of 1 (mixed)", "RNA 1": "B1 RNA 1", "RNA 2": "B21 RNA 2 with C39G, G41U, U43A, A44U, U45A, G51C, C52A, A53G"}, "B32": {"name": "target 1 C2G,C4A (mixed)", "RNA 1": "B1 RNA 1", "RNA 2": "B5 RNA 2 with G33U, A40G, C48A, C50G"}, "B33": {"name": "target 1 U10C,A16G (mixed)", "RNA 1": "B1 RNA 1", "RNA 2": "B5 RNA 2 with G33U, A36G, A40G, U42C"}},
  "note": "Substitutions are numbered along the chain they refer to. Names may count otherwise.",
  "data": [
    {"target": "T1, EsCas13d, nuclease-dead (Eubacterium siraeum, UniProt B0MS50, R295A;H300A;R849A;H854A)", "T1 sequence": "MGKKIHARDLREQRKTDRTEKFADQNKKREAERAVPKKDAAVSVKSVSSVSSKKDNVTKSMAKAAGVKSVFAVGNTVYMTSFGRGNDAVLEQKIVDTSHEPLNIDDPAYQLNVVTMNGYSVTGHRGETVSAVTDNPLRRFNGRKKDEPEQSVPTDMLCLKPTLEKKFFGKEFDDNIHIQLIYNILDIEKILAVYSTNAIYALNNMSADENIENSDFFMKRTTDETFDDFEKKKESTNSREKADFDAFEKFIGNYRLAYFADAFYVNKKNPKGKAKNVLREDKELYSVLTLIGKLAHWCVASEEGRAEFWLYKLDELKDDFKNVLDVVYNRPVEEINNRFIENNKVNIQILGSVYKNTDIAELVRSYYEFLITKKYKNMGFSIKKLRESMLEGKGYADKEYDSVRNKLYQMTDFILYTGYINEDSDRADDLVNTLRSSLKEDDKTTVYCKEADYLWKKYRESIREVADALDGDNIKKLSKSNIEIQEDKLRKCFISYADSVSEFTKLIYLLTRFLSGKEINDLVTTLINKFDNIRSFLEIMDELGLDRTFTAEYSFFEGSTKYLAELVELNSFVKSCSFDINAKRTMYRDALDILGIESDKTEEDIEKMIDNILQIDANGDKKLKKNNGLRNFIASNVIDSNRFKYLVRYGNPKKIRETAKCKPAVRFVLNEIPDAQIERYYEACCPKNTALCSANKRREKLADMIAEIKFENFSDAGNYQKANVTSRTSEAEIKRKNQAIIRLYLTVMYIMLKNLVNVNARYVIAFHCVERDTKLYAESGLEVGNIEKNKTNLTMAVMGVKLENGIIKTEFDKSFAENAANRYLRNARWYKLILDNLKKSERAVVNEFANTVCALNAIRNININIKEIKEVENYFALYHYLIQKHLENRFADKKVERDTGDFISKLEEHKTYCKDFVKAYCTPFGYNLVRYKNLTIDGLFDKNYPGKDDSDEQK", "assay": "crRNA (strand 1, pre-loaded); Mg2+; 40 mM Tris-HCl pH 7.5, 150 mM NaCl, 6 mM MgCl2, 1 mM DTT, 0.1% Tween-20, 0.2 mg/ml BSA; 25 C; 10 min per concentration, then washed", "conditions": "tags: His6-TwinStrep-SUMO cleaved; N-terminal SNAP kept (SNAP-Surface 488); label: 3' end held by stalled T7 RNA polymerase", "units": {"Kd": "nM"}, "values": [
      {"binder": "B1", "Kd": "7.8 ± 0.6"},
      {"binder": "B2", "Kd": "8 ± 0.5"},
      {"binder": "B3", "Kd": "29.5 ± 2.9"},
      {"binder": "B4", "Kd": "7.9 ± 0.4"},
      {"binder": "B5", "Kd": "54 ± 15"},
      {"binder": "B6", "Kd": "84 ± 25"},
      {"binder": "B7", "Kd": "~80"},
      {"binder": "B8", "Kd": "22.3 ± 1.5"},
      {"binder": "B9", "Kd": "84 ± 32"},
      {"binder": "B10", "Kd": "9.8 ± 1"},
      {"binder": "B11", "Kd": "28 ± 3"},
      {"binder": "B12", "Kd": "28.1 ± 3"},
      {"binder": "B13", "Kd": "51 ± 5"},
      {"binder": "B14", "Kd": "19.3 ± 1.8"},
      {"binder": "B15", "Kd": "23 ± 4"},
      {"binder": "B16", "Kd": "28.6 ± 2.7"},
      {"binder": "B17", "Kd": "13.5 ± 0.9"},
      {"binder": "B18", "Kd": "16.8 ± 0.9"},
      {"binder": "B19", "Kd": "44 ± 6"},
      {"binder": "B20", "Kd": "22.1 ± 0.9"},
      {"binder": "B21", "Kd": "25.6 ± 2.7"},
      {"binder": "B22", "Kd": "16.7 ± 0.9"},
      {"binder": "B23", "Kd": "13.7 ± 0.8"},
      {"binder": "B24", "Kd": "50 ± 6"},
      {"binder": "B25", "Kd": "40 ± 2.7"},
      {"binder": "B26", "Kd": "70 ± 13"},
      {"binder": "B27", "Kd": "3.35 ± 0.18"},
      {"binder": "B28", "Kd": "20 ± 7"},
      {"binder": "B29", "Kd": "3.71 ± 0.17"},
      {"binder": "B30", "Kd": "97 ± 30"},
      {"binder": "B31", "Kd": "18.3 ± 0.8"},
      {"binder": "B32", "Kd": "6.94 ± 0.32"},
      {"binder": "B33", "Kd": "62 ± 7"}
    ]}
  ]
}
